The values that follow come from patent US20160129078A1, “Rhomboid Proteins and Uses Thereof” (Queen's University at Kingston, priority 2014, published 2016).

One experiment relates to E. coli. In words: Colony formation of At1g74130-expressing E. coli on agar with increasing ampicillin. The class given is cell-based, Escherichia coli. The note with it: protein expressed in E. coli JM109(DE3) from pET20b; solid agar media; susceptibility at higher concentrations. The procedure:
Introduction and expression of At1g74130 was tested in E. coli, by subcloning the corresponding cDNA sequence into a T7 promoter-containing plasmid vector (pET20b) and JM109(DE3), a bacterial strain commonly used for expressing foreign proteins. Two alternative splice variants of At1g74130 were derived by RT-PCR cloning and tested along with the full version of At1g74130, also derived by RT-PCR cloning (see, e.g., FIGS. 3, 4, and 5). The alternative splice variants designated 6/7 and 7/8 are shown in FIGS. 1C and 1D, respectively. A similar procedure was used to express the At1g25290 and UBAC2 variants (see FIGS. 6, 7, and 8).
Alterations to protein translocation were investigated using the plasmid-borne multicopy gene, β-lactamase. The level of β-lactamase is a sensitive monitor of protein translocation and is translocated into the periplasm, where it detoxifies the antibiotic ampicillin, thereby conferring ampicillin-resistance to cells. Because the level of antibiotic resistance conferred also reflects the level of protein transport activity, the level of ampicillin resistance was determined for At1g74130 expressing cells and compared to that of control vector-containing cells on solid agar media containing increasing concentrations of ampicillin. […]

The subject of experiment [1] is MDA-MB-231 breast cancer cells. The experiment can be described thus: MTT viability assay, sensitization to lapatinib. Format: cell-based, human. Particulars: co-treatment with lapatinib; most prominent at 10 or 15 uM after 48 and 72 hours; 5 or 10 ug protein. From the text: (§1) Experiments were thus conducted to assess the ability of At1g74130 proteins or variants to enhance the sensitivity of two breast cancer cell lines to the chemotherapeutic drug lapatinib. The breast cancer cell lines selected for these assays were MDA-MB-231 and MDA-MB-468, two cell lines used frequently in cancer research. Any impact on the cells' ability to pump or transport drugs (in and out) may alter the efficacy a chemotherapeutic drug, e.g., by enhancing levels of cell death) or by increasing effectiveness at lower dosage levels. The design of the breast cancer cell assays was similar to that used for bacteria in the above examples, results, and figures. In these studies, the widely used MTT (methyl thiazolyl diphenyl-tetrazolium bromide) viability assay procedure was used to assess any impact exerted by At1g74130 variant S (see, for example, the MTT procedure described by Nagaria, T. S., et al., Flavopiridol synergizes with sorafenib to induce cytotoxicity and potentiate antitumorigenic activity in EGFR/HER-2 and mutant RAS/RAF breast cancer model systems, Neoplasia, 15:939-951, 2013).
(§2) Cells were cultured at 37° C. in 96-well plates (10,000 cells in 100 ul media per well) for 24-48 hours to near confluency. […] The assays were then read at 570 nm using a microplate scanning spectrophotometer. […]
For orientation: Formazan colour is commonly taken as a measure of viable cells.

Experiment [2] has as its system MDA-MB-468 breast cancer cells. The experiment can be described thus: MTT viability assay, sensitization to lapatinib. The class given is cell-based, human. Particulars: co-treatment with lapatinib; most prominent at 10 or 15 uM after 48 and 72 hours; 5 or 10 ug protein.
From the text: as §1, §2

B1: At1g74130 M: 7/8 M-form splice variant of Arabidopsis At1g74130 rhomboid protein (protein, listed as Arabidopsis thaliana)
chain: MHAIFCRRVAVGCSSPQLTKLVTKQASQSRHSLSHLLPFDLSSRFVPPYVVSRSARVHGFFAGKLGNTNLKLKFGNVMESRAGFFSSELPSHGFESGGFTGFQKRGWKSWINGANGVVFGLVIANAAVFTMWRVLGKDNMWMVKNFMLSRYSFMTGRIHTLITSGFSHVGATHIILNMMGLCYFGARIARSFGPRYLLKLYFAGALGGSVFFLSSHALSVISLKGQRVVPKDQLKVPIGKLGANGPVYAITLLDMLLYPKVTTYFGLMLRVPVFAGIYSLGLNIIKMLEVCMMGKTTIP
In the case of B1, the “ampicillin concentration at which expressing cells form colonies” value in the experiment on E. coli was determined as 1.5 mg/mL.

B2: At1g74130 S: 6/7 S-form splice variant of Arabidopsis At1g74130 rhomboid protein (protein, listed as Arabidopsis thaliana)
chain: MHAIFCRRVAVGCSSPQLTKLVTKQASQSRHSLSHLLPFDLSSRFVPPYVVSRSARVHGFFAGKLGNTNLKLKFGNVMESRAGFFSSELPSHGFESGGFTGFQKRGWKSWINGANGVVFGLVIANAAVFTMWRVLGKDNMWMVKNFMLSRYSFMTGRIHTLITSGFSHVGATHIILNMMGLCYFGARIARSFGPRYLLKLYFAGALGGSVFFLSSHALSVISLKGQRVVPKDQLKVPIGKLGANGPVYAITLLDMLLYPKVTTYFGLMLRVPVFAVRESIA
In the case of B2, the “increase in level of cell death” value in experiment [1] and in experiment [2] was 20 to 40% each time.
